# In the nanobody polyreactivity screen of Harvey et al. (2022):
# Experiment: yeast display, Sf9 membrane polyspecificity reagent, FACS + sequencing; frameworks hold sequencing errors
# Procedure, shortened: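 Galactose induction of a Saccharomyces cerevisiae BJ5465 synthetic nanobody display library ran 36–48 hours. The cells were then stained for 1 hour at 4 °C with 10% biotinylated, detergent-solubilized Sf9 membrane reagent, pulled down on streptavidin microbeads and FACS-sorted into low and high (top ~1%) gates on expression and reagent-binding fluorescence. Labels for polyreactivity follow the gate of origin.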
row,Sequence,polyreactivity (PSR sort gate)
1,QVQLVESGGGLVQAGGSLRLSCAASGGIFYYYAMGWYRQAPGKERELVAAISWSGGSTYYADSVKGRFTISRDNAKNTVYLQMNSLKPDDTAVYYCATYSDFHYAQLEYDYWGQGTQVTVSS,low polyreactivity
2,QVQLVESGGGLVQAGGSLRLSCAASGGIIGHYDMGWYRQAPGKERELVAAIIGGGSTNYADSVKGRFTISRDNAKNTVYLQMNSLKPEDTAVYYCNVAHGTQGWWGRNDYWGQGTQVTVSS,low polyreactivity
3,QVQLVESGGGLVQAGGSLRLSCAASGGIIQNYVMGWYRQAPGKEREFVATISQRGGITYYADSVKGRFTISRDNAKNTVYLQMNSLKPEDTAVYYCAARSYYAVYYWGQGTQVTVSS,high polyreactivity
4,QVQLVESGGGLVQAGGSLRLSCAASGGILDTYALGWYRQAPGKERELVAAITSGGNTNYADSVKGRFTISRDNAKNTVYLQMNSLKPEDTAVYYCAALYTVSYLTSPVSYRYDYWGQGSQVTVSS,low polyreactivity
5,QVQLVESGGGLVQAGGSLRLSCAASGGINGTYTMGWYRQAPGKEREMGAAISKRGGNTYYADSVKGRFTISRDNAKNTVYLQMNSLKPEDTAVYYCAKRVSGSPPTAGSLSDSWGQGTQVTVSS,high polyreactivity
6,QVQLVESGGGLVQAGGSLRLSCAASGGISDVYAMGWYRQAPGKERELVAAINWSGGSTYYADSVKGRFTISRDNAKNTVYLQMNSLKPEDTAVYYCAADPGIIGTFDWYDYWGQGTQVTVSS,low polyreactivity
7,QVQLVESGGGLVQAGGSLRLSCAASGGISSSNAMGWYRPAPGKERELVAGINSRGGSTYADSVKGRFTISRDNAKHTVYLQMNSLKPEDTAVYYCAAAPTFKWRRNNYDYWGQGTQVTVSS,high polyreactivity
8,QVQLVESGGGLVQAGGSLRLSCAASGGIYGNYAMGWYRQAPGKERELVADITTGGSTYYADSVKGRFTISRDNAKNTVYLQMNSLKPEDTAVYYCNARSLFHRFSSYKYDYWGQGTQVTVST,high polyreactivity
9,QVQLVESGGGLVQAGGSLRLSCAASGGIYYRYAKGWYRQAPGKERDLVAVISRSGSTYYADSVKGRFTMSRDNAQNTVYLQMNSLKPEDTAVYYCAAYSRCRYGLVPYDYWGQGTQVTVSS,high polyreactivity
10,QVQLVESGGGLVQAGGSLRLSCAASGGNFTYNAMGWYRQAPGKERELVASISRGGGSTYYADSVKGRFTISRDNAKNTVYLQMNSLKPEDTAVYYCAASFIVGYYGYDYWGQGTQVTVSS,low polyreactivity
11,QVQLVESGGGLVQAGGSLRLSCAASGGPFYTYTMGWYRQAPGKERELVAAISFSDASTYYADSVKGRFTISRDNAKNTVFLQMNSLKPEDTGVYYCNAGVLQWVYYPFDYWGQGTQVTVSS,low polyreactivity
12,QVQLVESGGGLVQAGGSLRLSCAASGGSFGMNAMGWYRKAPGKERELVASINANGGSTYYADSVKGRFTISRDNAKNTVYLQMNSLKPEDTAVYYCAVVVTRYNHNEYNSWGQGTQVTVSS,low polyreactivity
13,QVQLVESGGGLVQAGGSLRLSCAASGGTFAFNAMGWYRQAPGKERELVATIRYSGGSTYADSVKGRFTISRDNAKNTVYLQMNSLKPEDTAVYYCAASGYYIFSWRYDYWGQGTQVTVSS,low polyreactivity
14,QVQLVESGGGLVQAGGSLRLSCAASGGTFARNAMGWYRQAPGKERELVATITRRAGNTYYADSVKGRFTISRDNAKNTVYLEMNSLKREDTAVYYCAGVATWGFYPYLIPEVGNDYWGQGTQVTVSS,high polyreactivity
15,QVQLVESGGGLVQAGGSLRLSCAASGGTFARYAMGWYRQAPGKERELVAAITRSGGTTYYADSVKGRFTISRDNAKNTVYLQMNSLKPEDTAVYYCAALPIVDYYGYGYWGQGTQVNVSS,high polyreactivity
16,QVQLVESGGGLVQAGGSLRLSCAASGGTFAVNVMGWYRQAPGKERELVAAITSNGGSTYYADSVKGRFTISRDNAKNTVYLQMNSLTPEATAVYYCAAEGSGWYTGHYYYWGQGTQVTVSS,low polyreactivity
17,QVQLVESGGGLVQAGGSLRLSCAASGGTFAYYAMGWSRQAPGKERELVAAISSGGSTNYADSVKGRFTISRDNAKNTVNLQMNSLKPEDTAGYFCAADYYGPFYGYTYDYWGQGTQVTVSS,low polyreactivity
18,QVQLVESGGGLVQAGGSLRLSCAASGGTFDNYAMGWYRQAPGKERELVAAISWSGDNTYYADSVKGRFTISRDNAKNTVYLQMNSLKPEDTAVYYCAAVYFWYSYDEGYTAYDYWGQGTQVTVSS,low polyreactivity
19,QVQLVESGGGLVQAGGSLRLSCAASGGTFDPSAMGWYRQAPGKERDFVAAISWSGGRTYYADSVKGRFTISRDNAKNTVYLQMNSLKPEDTAVYYCAATSVGYAQRRYGYWGQGTQVTVSS,high polyreactivity
20,QVQLVESGGGLVQAGGSLRLSCAASGGTFDTYDMGWYRQAPGKERELVAAIRFGDGTTYYADSVKGRFTISRDNAKNTVYLQMNSLKPEDTAVYYCAAVFVWQPQYDQFRYDYWGQGTQVTVSS,low polyreactivity
21,QVQLVESGGGLVQAGGSLRLSCAASGGTFDVNAMGWYRQAPGKERELVAAITWSGGNTYYADSVKGRFTISRDNAKNTVYLQMTSLKPEDTAVYYCATDFSPVYYTRYDYWGQGTQVTVSS,low polyreactivity
22,QVQLVESGGGLVQAGGSLRLSCAASGGTFDVYTMGWYRQAPGKERELVAAIDNGGSTNYADSVKGRFTISRDNAKNTVYLQMNSLKPEDTAVYYCAADEVYLFWGIAEFIYDYWGQGTQVTVSS,low polyreactivity

row,Sequence,polyreactivity (PSR sort gate)
1,QVQLVESGGGLVQAGGSLRLSCAASGGTFDWNTMGWYRQAPGKERELVASITSGGRTNYAASVKGRFTISRDNAMNPVYLQLNSLKPEDTAVYYCANYPRSAYPWQTWVGQKFDYWGQGTQVTVSS,low polyreactivity
2,QVQLVESGGGLVQAGGSLRLSCAASGGTFETYALGWYIPAPGKEREFVAANSRSGGSTYYADSVKGRFTISRDNAKNTVYLQMNSLKPEDTAVYYCAAEGYDLSSRVYGGYDYWGQGTQVTVSS,low polyreactivity
3,QVQLVESGGGLVQAGGSLRLSCAASGGTFFTNAMGWYRQAPGKERELVAVITGSGGRTYYADSVKGRFTISRDNAKNTVYLQMNSLKPEDTAVYYCAARGYSWGQGTQVTVSS,high polyreactivity
4,QVQLVESGGGLVQAGGSLRLSCAASGGTFGQYAMGWYRLAPGKERELVAAITSSGGRKYYADSVKGRFTISRDNAKNTVYLQMNSLKPEDTAVYYCAADVQSRYVGEGDYWGQGTQVTVSS,high polyreactivity
5,QVQLVESGGGLVQAGGSLRLSCAASGGTFGQYAMGWYRQAPGKERELVAAITSSGGRTYYADSVKGRFTISRDNAKNTVYLQMNSLKPEDTAVYYCAADVQSRYVGEGDYWGQGTQVTVSS,high polyreactivity
6,QVQLVESGGGLVQAGGSLRLSCAASGGTFGSYAMGWYRQAPGKDRELVAAITGSGGRTYYADTVKGRFTISRDNAKNTVYLQMKSLKPEDTAVYYCNATRGIGTPYYYWGQGTQVTVSS,high polyreactivity
7,QVQLVESGGGLVQAGGSLRLSCAASGGTFGYNAMGWYRQAPGKERELVADITRGGITYYADSVKGRFTISRDNAKNTVYLQMNSLKPEDTAVYYCNAEYYVFSYSYGGVLRGDYWGQGTQVTVSS,high polyreactivity
8,QVQLVESGGGLVQAGGSLRLSCAASGGTFHLNAMGWYRQAPRKEREFVASISWSGGSTYYADSVKGRFTISRDNAKNTVYLQMNCLKPEDTAVYYCARRKYYRQGGRTKGYDYWGQGTQVTVSS,high polyreactivity
9,QVQLVESGGGLVQAGGSLRLSCAASGGTFHYYAMGWYRQAPGKERELVAAINRSGDSTYYADSVKGRFTISRDNAKNTVYLQMNSLKPEDTAVYYCAVSYYGADGNPFPHDYWGQGTQVTVSS,low polyreactivity
10,QVQLVESGGGLVQAGGSLRLSCAASGGTFITNAMGWYRKAPGKERELVAAITSGGRTTYADSVKGRFTISRDNAKNTVDLQMNSLKPVDTAVYYCAADHVYSSTYFLDDYWGQGTQVTVSS,low polyreactivity
11,QVQLVESGGGLVQAGGSLRLSCAASGGTFLFYGMGWYRQAPGNERELVAVITWSGGSTYYADSVKGRFTISRDTAKNTVYLHMNSLKPVDTAVYYCAADGYFYFDYPWMNYWGQGTQVTVSS,low polyreactivity
12,QVQLVESGGGLVQAGGSLRLSCAASGGTFLNYAMGWYRQAPGKERELVAVITNGDSTYYADSVKGRFTISRDNAKNSVYLQMNSLKPEDTAVYYCNADDWGQYNIWYDYWGQGTQVTVSS,low polyreactivity
13,QVQLVESGGGLVQAGGSLRLSCAASGGTFLSNAMGWYRQAPGKERELVAAISASSGSTYYADSVKGRFTISRDNAKNPVYLQMNSVKPEDTAVYYCAKERRASVVRYDYWGQGTQVTVSS,low polyreactivity
14,QVQLVESGGGLVQAGGSLRLSCAASGGTFNGYAMGWYRQAPGKERELVAAITSSGGSTYYADSVKGRFTISRDNAKNTVYLQMNSLKPEDTAVYYCAAALYPTYDVVRGYAYEYWGQGTQVTVSS,low polyreactivity
15,QVQLVESGGGLVQAGGSLRLSCAASGGTFNSNAMGWYRQAPGKERELVASITWRCGTYYADSVKGRFTISRDNAKNTVYLQMNSLKPVDTAVYYCAADTYYKGDYWGQGTQVTVSS,high polyreactivity
16,QVQLVESGGGLVQAGGSLRLSCAASGGTFNSNAMGWYRQAPGKERELVASITWRGGTYYADSVKGRFTISRDNAKNTVYLQMNSLKPEDTAVYYCAARGTIPGIHWIYYYWGQGTQVTVSS,high polyreactivity
17,QVQLVESGGGLVQAGGSLRLSCAASGGTFNTNAMGWYRQAPGKERELVATIRGGVITTYADSVKGRFTISRDNAKNTVYLQMNSLKPEDTAVYYCAVDDLRGYDYWGQGTQVTVSS,low polyreactivity
18,QVQLVESGGGLVQAGGSLRLSCAASGGTFPRNAMGWYRQAPGKERELVAAISRRGGSTYYADSVKGRFTISRDNAKNTVYLQMNSLKPEDTAVYYCATVQDKTYEYGYWGQGTQVTVSS,high polyreactivity
19,QVQLVESGGGLVQAGGSLRLSCAASGGTFPTNAMGWYRQAPGKERELVAAITSSGVRTYYADSVKGRFTISRDNAKNTVYLQMNSLKPEDTAVYYCATYSYTWMNYYWGQGTQVTVSS,high polyreactivity
20,QVQLVESGGGLVQAGGSLRLSCAASGGTFQDYGMGWYRQAPGKERELVAAITWSGGSTYYADSVKGRFTISRDNAKNTVYLQMNSLKPEDTAVYYCAAVYADVYLYLTAYDYWGQGTQVTVSS,low polyreactivity
21,QVQLVESGGGLVQAGGSLRLSCAASGGTFQINAMGWYRQAPGKEREMVAAISAAGGRTYYADSVKGRFTISRDNANNTVYLQMNSLKPEDTAVSYCAADWSYQVGRHQYFPMRYDYWGQGTQVTVSS,high polyreactivity
